In US20250295571A1, “COMPOSITIONS AND METHODS FOR STIMULATION OF HAIR GROWTH” (THE REGENTS OF THE UNIVERSITY OF CALIFORNIA, priority 2022, published 2025):

Tests used:
anagen HFs [1] = assay: Intradermal protein microinjection in aged mice over 20 months of age, induced anagen HFs on day 14; assay type: in vivo, mouse; details: day 14 after protein injection, n=9
Source text: (§1) FIGS. 2A-2I. SCUBE3 induces hair growth. (2A) Expression of pan-isoform Scube3 mRNA in dorsal mouse skin at indicated postnatal time points. (2B) Time course analysis of dorsal hair growth patterns in representative control (top) and Scube3^−/− mice (bottom) between days P24-30. Mice were shaved before each round of photography. (2C) Representative images of microinjection sites for BSA (top) and rhSCUBE3 (bottom). Affi-gel blue agarose beads are visible. Newly growing anagen HFs are pigmented. (2D) Quantification of induced anagen HFs in response to rhSCUBE3 on day 14. n=7; *** P<0.0002. (2E) Representative images of microinjection sites for BSA (left) and rhSCUBE3 (right) on 20-month-old mice. Affi-gel blue agarose beads are visible. Newly growing anagen HFs are pigmented. (2F) Quantification of induced anagen HFs in aged mice on day 14 after protein injection. n=9; * P<0.0001. (2G) Expression of K14, KI67 and SCUBE3 mRNA in human anagen occipital scalp HF. SCUBE3 mRNA is specifically and highly expressed in DP and adjacent dermal sheath cup. (2H) Representative images of microinjection sites for BSA and rhSCUBE3 in human occipital scalp HF-on-SCID mouse xenograft model. (2I) Scattered plot of human and mouse anagen HF quantification. Striped dots represent rhSCUBE3-injected samples and solid dots represent BSA-injected samples. Tissue sections were counterstained with DAPI in 2A, 2G. […]

mouse host HFs = assay: Human occipital scalp HF-on-SCID mouse xenograft model, adjacent mouse host HFs; assay type: in vivo; details: three daily doses on post-grafting day 30; counted on post-grafting day 50; compared to BSA (n=5), rhSCUBE3 n=6
Source text: as §1, with “SCUBE3 mRNA is specifically and highly expressed in DP and adjacent dermal sheath cup. (2H) Representative images of microinjection sites for BSA and rhSCUBE3 in human occipital scalp HF-on-SCID mouse xenograft model.” left out, “quantification.” for “quantification. Striped dots represent rhSCUBE3-injected samples and solid dots represent BSA-injected samples. Tissue sections were counterstained with DAPI in 2A, 2G.”
(§2) To start evaluating the translational potential of SCUBE3, first we examined its expression pattern in human anagen HFs from occipital scalp of volunteer donors, undergoing autologous hair transplantation procedures. […] Anagen phase human and adjacent mouse host HFs were then counted at each injection site on post-grafting day 50. […]

[2] = test system: grafted human occipital scalp HFs; assay: Human occipital scalp HF-on-SCID mouse xenograft model, grafted human HFs; assay type: in vivo; details: three daily doses on post-grafting day 30; counted on post-grafting day 50; compared to BSA (n=5), rhSCUBE3 n=6
Source text: as §1, with “SCUBE3 mRNA is specifically and highly expressed in DP and adjacent dermal sheath cup. (2H) Representative images of microinjection sites for BSA and rhSCUBE3 in human occipital scalp HF-on-SCID mouse xenograft model.” left out, “quantification.” for “quantification. Striped dots represent rhSCUBE3-injected samples and solid dots represent BSA-injected samples. Tissue sections were counterstained with DAPI in 2A, 2G.”
as §2

anagen HFs [3] = assay: Intradermal microinjection of protein in mice starting at P48, induced anagen HFs counted on day 14; assay type: in vivo, mouse; details: intradermally microinjected for four days starting at P48; compared on day 14 to BSA; n=7
Source text: as §1

B1: rhSCUBE3: recombinant human SCUBE3 (Signal Peptide, CUB Domain And EGF Like Domain Containing 3) protein (protein, listed as Homo sapiens)
chain: CGGELGEFTGYIESPNYPGNYPAGVECIWNINPPPKRKILIVVPEIFLPSEDECGDVLVMRKNSSPSSITTYETCQTYERPIAFTARSRKLWINFKTSEANSARGFQIPYVTYDEDYEQLVEDIVRDGRLYASENHQEILKDKKLIKAFFEVLAHPQNYFKYTEKHKEMLPKSFIKLLRSKVSSFLRPYK
In the case of B1, the “new hair growth at the injection sites (induced anagen HFs), mean difference vs BSA” value (anagen HFs [1]) is reported as 31.78+/−2.40, the “new anagen of mouse host HFs” value (mouse host HFs) is reported as “stimulated new anagen of mouse host HFs” and the “anagen entry of grafted human HFs” value [2] is reported as “accelerated anagen entry of grafted human HFs”. For the same molecule, the “new hair growth (induced anagen HFs), mean difference compared to BSA” value (anagen HFs [3]) was 18+/−3.44.
